Data taken from patent US6376240.

Target: recombinant His6-RFLAT-1 (C-terminal portion of RFLAT-1, amino acids 59-288)
Sequence (chain, as listed by the source): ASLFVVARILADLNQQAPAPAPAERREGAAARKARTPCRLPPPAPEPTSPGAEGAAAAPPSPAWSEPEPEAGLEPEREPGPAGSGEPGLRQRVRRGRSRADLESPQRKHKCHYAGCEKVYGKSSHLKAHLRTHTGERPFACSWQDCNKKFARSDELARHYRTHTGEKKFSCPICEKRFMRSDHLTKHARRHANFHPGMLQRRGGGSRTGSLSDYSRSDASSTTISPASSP

B1: ERK1 kinase (protein)
chain: MAAAAAQGGGGGEPRRTEGVGPGVPGEVEMVKGQPFDVGPRYTQLQYIGEGAYGMVSSAYDHVRKTRVAIKKISPFEHQTYCQRTLREIQILLRFRHENVIGIRDILRASTLEAMRDVYIVQDLMETDLYKLLKSQQLSNDHICYFLYQILRGLKYIHSANVLHRDLKPSNLLINTTCDLKICDFGLARIADPEHDHTGFLTEYVATRWYRAPEIMLNSKGYTKSIDIWSVGCILAEMLSNRPIFPGKHYLDQLNHILGILGSPSQEDLNCIINMKARNYLQSLPSKTKVAWAKLFPKSDSKALDLLDRMLTFNPNKRITVEEALAHPYLEQYYDPTDEPVAEEPFTFAMELDDLPKERLKELIFQETARFQPGVLEAP
phosphorylation of recombinant RFLAT-1 by kinase (control): As controls, ERK1 kinase does not
